Results taken from US20240247080A1, “GLP1/GIP/NPY2 RECEPTOR TRIPLE AGONISTS” (Boehringer Ingelheim International GmbH, priority 2022, published 2024).
Starred links: 1 amine or outer side, 2 acyl side, 3 side chain; linkers in the order of their positions; H or OH if unused. Non-standard residues stand in square brackets, D forms with d. Groups on a side chain read outwards from the residue. No end group written: not given here. *: point of attachment. C20 diacid = O=C(O)CCCCCCCCCCCCCCCCCCC(=O)*; γGlu = O=C(O)[C@H](CCC(=O)[*:2])N[*:1]; AEEA = NCCOCCOCC(=O)O; Aib = CC(C)(N)C(=O)O

T1: GIP receptor (human (printed as hGIPR), UniProt P48546 22-466)
T1 sequence (looked up): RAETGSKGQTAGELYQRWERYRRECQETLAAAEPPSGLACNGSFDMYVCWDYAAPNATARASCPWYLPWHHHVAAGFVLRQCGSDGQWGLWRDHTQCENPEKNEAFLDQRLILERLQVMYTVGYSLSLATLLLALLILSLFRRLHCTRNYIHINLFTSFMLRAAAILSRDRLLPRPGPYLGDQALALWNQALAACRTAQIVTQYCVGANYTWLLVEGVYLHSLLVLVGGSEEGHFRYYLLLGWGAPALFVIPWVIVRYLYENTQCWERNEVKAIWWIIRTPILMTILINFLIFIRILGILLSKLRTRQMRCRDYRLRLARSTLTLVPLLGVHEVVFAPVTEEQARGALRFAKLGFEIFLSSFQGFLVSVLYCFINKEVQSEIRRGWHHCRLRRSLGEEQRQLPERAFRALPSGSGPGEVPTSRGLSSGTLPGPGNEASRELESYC

T2: NPY2 receptor (human (printed as hNPY2R), UniProt P49146 1-381)
T2 sequence (looked up): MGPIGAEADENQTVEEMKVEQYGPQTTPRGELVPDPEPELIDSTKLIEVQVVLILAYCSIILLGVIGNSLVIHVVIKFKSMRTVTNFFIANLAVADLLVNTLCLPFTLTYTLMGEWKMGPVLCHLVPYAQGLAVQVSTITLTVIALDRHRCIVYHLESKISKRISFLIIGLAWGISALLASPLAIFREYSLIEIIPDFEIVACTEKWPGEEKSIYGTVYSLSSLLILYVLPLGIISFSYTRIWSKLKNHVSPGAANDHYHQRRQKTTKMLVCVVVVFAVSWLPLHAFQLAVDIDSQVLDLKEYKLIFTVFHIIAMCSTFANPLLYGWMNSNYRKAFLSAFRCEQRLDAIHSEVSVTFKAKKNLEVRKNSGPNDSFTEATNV

B1: Compound 212 (peptide)
peptide: Y[Aib]EGTFTSDYSI[Aib]LEKQAQ[Aib]AFVEWLIKGGPSSGVSLRHYYNWLTRQRY-NH2
modifications: not fully specified (residue 28); also: TFA salt
B2: Compound 204 (peptide)
peptide: Y[Aib]EGTFTSDYSI[Aib]LEKQAQ[Aib]AFVEWLIKGGPSSGASLRHYYNW[dD]TRQRY-NH2
modifications: not fully specified (residue 28); also: TFA salt
B3: Compound 198 (peptide)
peptide: Y[Aib]EGTFTSDYSI[Aib]LEKQAQ[Aib]EFVEWLIKGGPSSGASLRHYYNWLTRQRY-NH2
modifications: not fully specified (residue 28); also: TFA salt
B4: Compound 205 (peptide)
peptide: Y[Aib]EGTFTSDYSI[Aib]LEKQAQ[Aib]EFVEWLIK([AEEA-AEEA-γGlu-γGlu-γGlu-γGlu-C20 diacid])GGPSSGASLRHYYNWLTRQRY-NH2
modifications: also: TFA salt
B5: Compound 208 (peptide)
peptide: YXEGTFTSDYSIXLEKQAQXAFVEWLIKGGPSSGASLRHYYNWLTRXRY
modifications: Aib at 2, 13, 20; bHGln (beta-homo-L-glutamine) at 47; K28 side chain carries C20DA-gGlu-gGlu-gGlu-gGlu-gGlu-gGlu-eLys; C-terminal amide
B6: Compound 210 (peptide)
peptide: YXEGTFTSDYSIXLEKQAQXAFVEWLIKGGPSSGASLLHYYNWLTRQRY
modifications: Aib at 2, 13, 20; K28 side chain carries C20DA-gGlu-gGlu-gGlu-gGlu-gGlu-gGlu-eLys; C-terminal amide
B7: Compound 214 (peptide)
peptide: YXEGTFTSDYSIXLEKQAQXAFVEWLIKGGPSSGASLRHYYNWLTRQRY
modifications: Aib at 2, 13, 20; D-Tyr at 49; K28 side chain carries C20DA-gGlu-gGlu-gGlu-gGlu-gGlu-gGlu-eLys; C-terminal amide
B8: Compound 213 (peptide)
peptide: YXEGTFTSDYSIXLEKQAQXAFVEWLIKGGPSSGASLRHYYXWLTRQRY
modifications: Aib at 2, 13, 20, 42; K28 side chain carries C20DA-gGlu-gGlu-gGlu-gGlu-gGlu-gGlu-eLys; C-terminal amide

Assays:
Assay in all cases: cell-based or functional assay
GLP-1 receptor = GLP-1 receptor (human (printed as hGLP1R), UniProt P43220 24-463)
GIP receptor = target: T1, GIP receptor
NPY2 receptor = target: T2, NPY2 receptor

| Binder | EC50 hGLP1R 0.5% hP (CreLuc) (GLP-1 receptor) | EC50 hGLP1R 100% hP (CreLuc) (GLP-1 receptor) | EC50 hGIPR 0.5% hP (CreLuc) (GIP receptor) | EC50 hGIPR 100% hP (CreLuc) (GIP receptor) | EC50 hNPY2R 0.5% hP (CreLuc) (NPY2 receptor) | EC50 hNPY2R 100% hP (CreLuc) (NPY2 receptor) |
| --- | --- | --- | --- | --- | --- | --- |
| B1 | 0.11 nM | 3.69 nM | 0.24 nM | 1.83 nM | 13.5 nM | 122 nM |
| B2 | 0.12 nM | 3.14 nM | 0.35 nM | 2.88 nM | > 99.9 nM | > 999 nM |
| B3 | 0.47 nM | 15.8 nM | 0.26 nM | 5.01 nM | 13.1 nM | 69.9 nM |
| B4 | 0.44 nM | 12.3 nM | 0.33 nM | 1.87 nM | 10.6 nM | 37.7 nM |
| B5 | 0.11 nM | 1.51 nM | 0.07 nM | 0.81 nM | > 100 nM | > 1000 nM |
| B6 | 0.19 nM | 3.39 nM | 0.28 nM | 2.3 nM | 54.1 nM | 430 nM |
| B7 | 0.19 nM | 2.65 nM | 0.23 nM | 1.81 nM | > 99.9 nM | 283 nM |
| B8 | 0.16 nM | 3.03 nM | 0.34 nM | 1.53 nM | > 100 nM | > 1000 nM |
